Data on 22 molecules can be found in patent US8008547B2, “Glyphosate-N-acetyltransferase (GAT) genes” (E.I. duPont de Nemours, priority 2000, dated 2011).

This series is described as follows: Standard protocol for determination of kcat and KM (continuous spectrophotometric assay, Acetyl CoA hydrolysis at 235 nm). Format: biochemical. Particulars: purified protein, about 23° C., 0.2 mM acetyl CoA; for Kcat: 20 mM HEPES pH 6.8, 10% ethylene glycol; for Km: pH 6.8, glyphosate 0.125 to 10 mM. An outline of the steps:
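KM from initial rates over 0.125–10 mM glyphosate, fitted by Lineweaver-Burke transformation of Michaelis-Menten; kcat/KM computed as kcat divided by KM. Continuous spectrophotometric read of acetyl-CoA hydrolysis at 235 nm.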

B1: SEQ ID NO: 467: GAT polypeptide (protein)
chain: MIEVKPINAEDTYELRHRILRPNQPLEACMYESDLLRGSFHLGGFYRGKLISIASFHQAEHSELEGQKQYQLRGMATLEGFREQKAGSSLIRHAEEILRKRGADLLWCNARTTAAGYYKKLGFSEQGEIFDTPPVGPHILMYKRIT
modifications: 1_1H2
notes: GAT polypeptide
B1: the Kcat stood at 2.73 s⁻¹ and the Km worked out at 440 µM.

B2: SEQ ID NO: 469: GAT polypeptide (protein)
chain: MIEVKPINAEDTYELRHRILRPNQPIEACMYESDLLRGSFHLGGFYRGKLISIASFHQAEQSELEGQKQYQLRGMATLEGYRDQKAGSTLIKHAEEILRKKGADLLWCNARTSAAGYYKRLGFSEQGEIFDTPPVGPHILMYKRLT
modifications: 1_2A12
notes: GAT polypeptide
Take B2: the Kcat was 3.82 s⁻¹ and the Km worked out at 1300 µM.

B3: SEQ ID NO: 474: GAT polypeptide (protein)
chain: MLEVKPINAEDTYELRHRILRPNQPLEACMYETDLLRGSFHLGGFYRGKLISIASFHQAEHSELEGQKQYQLRGMATLEGYRDQKAGSSLIRHAEEILRKRGADMLWCNARTTAAGYYKKLGFSEQGEIYDTPPVGPHILMYKKLT
modifications: 1_2F8
notes: GAT polypeptide
Take B3: the Kcat came out at 2.68 s⁻¹ and the Km is 1900 µM.

B4: SEQ ID NO: 470: GAT polypeptide (protein)
chain: MIEVKPINAEETYELRHKILRPNQPLEACMYETDLLRGSFHLGGFYRGKLISIASFHQAEHSELEGQKQYQLRGMATLEGFRDQKAGSSLIKHAEEILRKRGADLLWCNARTSASGYYKKLGFSEQGEIFETPPVGPHILMYKRLT
modifications: 1_2B6
notes: GAT polypeptide
On to B4, for which the Kcat was 2.3 s⁻¹ and the Km worked out at 580 µM.

B5: SEQ ID NO: 468: GAT polypeptide (protein)
chain: MIEVKPINAEDTYEIRHRILRPNQPLEACMYESDLLRGSFHLGGFYRGKLISIASFHQAEHSDLEGQKQYQLRGMATLEGYRDQKAGSSLIRHAEQILRKRGADLLWCNARTTAAGYYKRLGFSEQGEVFDTPPVGPHILMYKKLT
modifications: 1_1H5
notes: GAT polypeptide
Turning to B5, the Kcat amounted to 1.57 s⁻¹ and the Km came to 1500 µM.

B6: SEQ ID NO: 473: GAT polypeptide (protein)
chain: MIEVKPINAEDTYELRHRILRPNQPIEACMYESDLLRGSFHLGGFYRGKLISIASFHQAEHSDLQGQKQYQLRGMATLEGYREQKAGSSLIKHAEQLLRKKGADMLWCNARTSAAGYYKRLGFSEHGEIFETPPVGPHILMYKRIT
modifications: 1_2D4
notes: GAT polypeptide
As for B6, the Kcat came to 3.03 s⁻¹ and the Km turned out to be 1200 µM.

B7: SEQ ID NO: 478: GAT polypeptide (protein)
chain: MIEVKPINAEETYELRQRILRPNQPIEACMYESDLLRGSFHLGGFYRGQLISIASFHQAEHSELQGQKQYQLRGMATLEGYREQKAGSTLIKHAEEILRKKGADLLWCNARTSAAGYYKRLGFSEHGEIFDTPPVGPHILMYKRIT
modifications: 1_3F3
notes: GAT polypeptide
On to B7, for which the Kcat turned out to be 2.78 s⁻¹ and the Km was 1500 µM.

B8: SEQ ID NO: 477: GAT polypeptide (protein)
chain: MIEVKPINAEDTYELRHKILRPNQPIEACMYESDLLQGSFHLGGFYRGQLISIASFHQAEHSDLQGQKQYQLRGMATLEGFREQKAGSTLIKHAEEILRKKGADLLWCNARTSAAGYYKKLGFSEHGEIFDTPPAGPHILMYKKLT
modifications: 1_3D6
notes: GAT polypeptide
On to B8, for which the Kcat was determined as 3.77 s⁻¹ and the Km stood at 3500 µM.

B9: SEQ ID NO: 479: GAT polypeptide (protein)
chain: MIEVKPINAEDTYELRHRILRPNQPIEACMYETDLLRGAFHLGGYYRGQLISIASFHKAEHSELQGQKQYQLRGMATLEGYREQKAGSTLIKHAEQLLREKGADMLWCNARTSAAGYYKRLGFSEQGEVFDTPPVGPHILMYKKLT
modifications: 1_3H2
notes: GAT polypeptide
Turning to B9, the Kcat amounted to 2.13 s⁻¹ and the Michaelis constant (Km) worked out at 700 µM.

B10: SEQ ID NO: 277: GAT polypeptide (protein)
chain: MIEVKPINAEDTYEIRHRILRPNQPLEACKYETDLLGGTFHLGGYYRGKLISIASFHQAEHPELEGQKQYQLRGMATLEEYREQKAGSTLIRHAEELLRKKGADLLWCNARTSASGYYKKLGFSEQGEVYDTPPVGPHILMYKKLT
modifications: 10_2B8
notes: GAT polypeptide
Regarding B10, the Kcat amounted to 1.807 s⁻¹ and the Michaelis-Menten constant (Km) amounted to 1100 µM.

B11: SEQ ID NO: 278: GAT polypeptide (protein)
chain: MIEVKPINAEDTYEIRHRILRPNQPLEACKYETDLLRGAFHLGGYYRGKLISIASFHQAEHPELEGQKQYQLRGMATLEGYREQKAGSTLIRHAEELLRKKGADLLWCNARTSASGYYKKLGFSEQGEVYDTPPVGPHILMYKKLT
modifications: 10_2C7
notes: GAT polypeptide
In the case of B11, the Kcat came to 2.25 s⁻¹ and the Km was 1400 µM.

B12: SEQ ID NO: 471: GAT polypeptide (protein)
chain: MLEVKPINAEETYELRHKILRPNQPIEACMYETDLLRGSFHLGGFYRGQLISIASFHQAEHSDLQGQKQYQLRGMATLEGYREQKAGSTLIKHAEELLRKKGADLLWCNARTTAAGYYKKLGFSEQGEVFDTPPVGPHILMYKKIT
modifications: 1_2C4
notes: GAT polypeptide
For B12, the Kcat was 3.22 s⁻¹ and the Km came out at 800 µM.

B13: SEQ ID NO: 462: GAT polypeptide (protein)
chain: MIEVKPINAEDTYELRHKILRPNQPIEACMYESDLLRGALHLGGYYRGKLISIASFHQAEHSELQGQKQYQLRGMATLEGYREQKAGSSLIKHAEEILRKRGADLLWCNARTSASGYYKKLGFSEQGEVFDTPPVGPHILMYKRIT
modifications: 11_3C3
notes: GAT polypeptide
Consider B13, for which the Kcat worked out at 3.567 s⁻¹ and the Km amounted to 220 µM.

B14: SEQ ID NO: 463: GAT polypeptide (protein)
chain: MLEVKPINAEDTYELRHKILRPNQPIEACMFESDLLRGAFHLGGFYGGKLISIASFHQAEHSDLEGQKQYQLRGMATLEGYREQKAGSTLIRHAEEILRKRGADLLWCNARTSASGYYKKLGFSEQGEIFDTPPVGPHILMYKRIT
modifications: 11_3C6
notes: GAT polypeptide
Regarding B14, the Kcat came out at 3.074 s⁻¹ and the Km stood at 210 µM.

B15: SEQ ID NO: 472: GAT polypeptide (protein)
chain: MIEVKPINAEDTYELRHKILRPNQPLEACMYESDLLRSAFHLGGFYRGKLISIASFHKAEHSELQGQKQYQLRGMATLEGYRDQKAGSSLIRHAEEILRKRGADMLWCNARTSAAGYYKRLGFSEQGEVFDTPPVGPHILMYKRIT
modifications: 1_2D2
notes: GAT polypeptide
In the case of B15, the Kcat was 2.07 s⁻¹ and the Km worked out at 1200 µM.

B16: SEQ ID NO: 476: GAT polypeptide (protein)
chain: MIEVKPINAEDTYELRHRILRPNQPIEACMYESDLLRGAFHLGGFYRGKLISIASFHQAEHSDLQGQKQYQLRGMATLEGYREQKAGSSLIRHAEEILRKKGADMLWCNARTTAAGYYKRLGFSEQGEVFDTPPVGPHILMYKRIT
modifications: 1_3A2
notes: GAT polypeptide
For B16, the Kcat came to 3.02 s⁻¹ and the Km is 800 µM.

B17: SEQ ID NO: 475: GAT polypeptide (protein)
chain: MIEVKPINAEETYELRHKILRPNQPLEACMYETDLLRGAFHLGGFYRGKLISIASFHQADHSELQGQKQYQLRGMATLEGYREQKAGSTLIRHAEQILRKRGADLLWCNARTSAAGYYKKLGFSEHGEIFETPPVGPHILMYKRLT
modifications: 1_2H8
notes: GAT polypeptide
As to B17, the Kcat is 2.35 s⁻¹ and the Km came to 480 µM.

B18: SEQ ID NO: 466: GAT polypeptide (protein)
chain: MIEVKPINAEETYELRHKILRPNQPIEACMYESDLLRGSFHLGGFYRGQLISIASFHKAEHSELQGQKQYQLRGMATLEGFREQKAGSSLIRHAEEILRNKGADLLWCNARTTASGYYKRLGFSEHGEVFETPPVGPHILMYKRIT
modifications: 1_1H1
notes: GAT polypeptide
On to B18, for which the Kcat amounted to 4.85 s⁻¹ and the Km is 1800 µM.

B19: SEQ ID NO: 461: GAT polypeptide (protein)
chain: MIEVKPINAEDTYELRHRILRPNQPLEVCMYETDLLRGAFHLGGFYGGKLISIASFHQAEHPDLQGQKQYQLRGMATLEGYRDQKAGSSLIRHAEQLLRKRGADLLWCNARTSASGYYKKLGFSEQGEIFETPPVGPHILMYKRIT
modifications: 11_3C12
notes: GAT polypeptide
The molecule B19 showed a Kcat of 0.8178 s⁻¹.

B20: SEQ ID NO: 464: GAT polypeptide (protein)
chain: MIEVKPINAEDTYELRHRILRPNQPIEVCMYETDLLRGAFHLGGFYRGKLISIASFHQAEHSDLQGQKQYQLRGMATLEGYREQKAGSSLIKHAEQILRKRGADLLWCNARTSASGYYKKLGFSEQGEVFDTPPVGPHILMYKRLT
modifications: 11_3D6
notes: GAT polypeptide
For B20, the Kcat came out at 0.922 s⁻¹.

B21: SEQ ID NO: 465: GAT polypeptide (protein)
chain: MLEVKPINAEDTYELRHRILRPNQPIEVCMYETDLLRGAFHLGGFYGGKLISIASFHQAEHSELQGQKQYQLRGMATLEGYRDQKAGSSLIKHAEEILRKRGADLLWCNARTSASGYYKKLGFSEQGEVFETPPVGPHILMYKRLT
modifications: 1_1G12
notes: GAT polypeptide
For B21, the Kcat worked out at 0.9747 s⁻¹.

B22: SEQ ID NO: 480: GAT polypeptide (protein)
chain: MIEVKPINAEDTYELRHKILRPNQPIEACMYESDLLRGSFHLGGFYRGKLISIASFHKAEHSDLEGQNQYQLRGMATLEGYREQKAGSTLIRHAEEILRKRGADMLWCNARTSASGYYKRLGFSEHGEIFDTPPVGPHILMYKRLT
modifications: 1_4C5
notes: GAT polypeptide
As to B22, the Kcat came to 4.23 s⁻¹ and the Km stood at 930 µM.

As a reminder, the Km is the substrate concentration at which the rate is half of its maximum.
